Source: PMC4565553
Positions count from the first letter of the chain named. One block for each molecule: values may come before it.

Key:
Assay in all cases: BLI; label-free in vitro kinetics assay; FLAG-tagged IPS1 CARD (2.5 μg/mL) immobilised on anti-FLAG probes; RLR CARDs at 0.001–100 μM in 1x Kinetics Buffer (ForteBio) with BSA, pH 7.0; 60 min association, 60 min dissociation; Kd = half-maximal steady-state binding, Km = half-maximal initial binding rate, one-site fit, 3 replicates; no ubiquitin
[1] = target: B. floridae IPS1 CARD (Branchiostoma floridae)
[2] = target: human IPS1 CARD (1–92), FLAG-tagged (human) (UniProt Q7Z434)
[3] = target: mutant human IPS1 CARD (Arg66,67—Glu), FLAG-tagged (human) (UniProt Q7Z434)

fold lower Kd than the negative control (human CASP9 CARD) [1]: 5.4 fold | fold lower Km than the negative control (human CASP9 CARD) [1]: 6.1 fold
Molecule: B. floridae RIG-I CARD1+2 (domain or fragment)

Kd [2]: 813 nM | Km (half-maximal initial binding rate) [2]: 0.55 µM
B1: human MDA5 CARD1 (1–96) (domain or fragment)
chain: MSNGYSTDENFRYLISCFRARVKMYIQVEPVLDYLTFLPAEVKEQIQRTVATSGNMQAVELLLSTLEKGVWHLGWTREFVEALRRTGSPLAARYMN

Kd [2]: 33.1 nM | Km (half-maximal initial binding rate) [2]: 0.0389 µM | fold stronger binding than human caspase9 CARD (negative control) [2]: 70 fold | fold increase in Kd against wild-type IPS1 CARD [3]: 34.6 fold | fold increase in Km against wild-type IPS1 CARD [3]: 43.8 fold
B2: human RIG-I CARD1 (1–87) (domain or fragment)
chain: MTTEQRRSLQAFQDYIRKTLDPTYILSYMAPWFREEEVQYIQAEKNNKGPMEAATLFLKFLLELQEEGWFRGFLDALDHAGYSGLYE

fold increase in Kd against wild-type RIG-I CARD1 [2]: 10 fold | fold increase in Km against wild-type RIG-I CARD1 [2]: 6.9 fold
B3: mutant human RIG-I CARD1 (Glu66,67—Arg) (domain or fragment)
chain: B2 chain with E66R, E67R
